B1: Alb/76 NS1 effector domain (ED), residues 73-230 (domain or fragment)
chain: TDENLKIAIASSPAPRYITDMSIEEISREWYMLMPRQKITGGLMVKMDQAIMDKRITLKANFSVLFDQLETLVSLRAFTDDGAIVAEISPIPSMPGHSTEDVKNAIGILIGGLEWNDNSIRASENIQRFAWGIRDENGGPPLPPKQKRYMARRVESEV
notes: also called Alb/76 ED; Alb/76 NS1 ED
B2: PR8 NS1 effector domain (ED), wild type, residues 73-230 (domain or fragment)
chain: SDEALKMTMASVPASRYLTDMTLEEMSRDWSMLIPKQKVAGPLCIRMDQAIMDKNIILKANFSVIFDRLETLILLRAFTEEGAIVGEISPLPSLPGHTAEDVKNAVGVLIGGLEWNDNTVRVSETLQRFAWRSSNENGRPPLTPKQKREMAGTIRSEV
notes: also called PR8 ED; PR8 NS1 ED

Biological target: the molecule itself
Experiment: SEC; gel filtration of the purified EDs; data not shown

Protein	stoichiometry N
B1	2
B2	2

— publication PMC3065461, “A Transient Homotypic Interaction Model for the Influenza A Virus NS1 Protein Effector Domain” (PLoS ONE, 2011)
